Experimental data published in article PMC10885436, “A novel AA14 LPMO from Talaromyces rugulosus with bifunctional cellulolytic/hemicellulolytic activity boosted cellulose hydrolysis” (Biotechnology for Biofuels and Bioproducts, 2024).

Substrate: COc1cccc(OC)c1O
Assay: purified protein
Assay type: biochemical, Talaromyces rugulosus
Details: co-substrate H2O2 fixed at 100 uM (below its Km, authors call kinetics insufficient), Cu(II)-saturated enzyme, 100 mM sodium phosphate pH 7.0, 37 C

B1: TrAA14A (Talaromyces rugulosus) (protein)
chain: HVVAWHPGMYCLGGNDTSVDDPNTNLAVNPLWDLPKSKWWFQADRGCDKAPPVDGVFLELPAGQNFTTELAHNRAQTTLSFNGQYAGEWPDGKDHPEDWSGTGTPPGCIQDDGAIHTNNQTMAGGTVFAISYQSDMSQVTMENLVVFSVLEHTPWKRIATYEVPADLPPCPDAGCICAWGWVPQGCGEPNMYMAGYKCKVTGSSSTKQLAQAQVPKYCANDTSECVGGAKQILVMNQADGNNVVAPDNDFVAYNEKWGFQNGAQNDIFM
notes: about 60 kDa glycosylated, about 30 kDa after Endo H; no dCTR
Km: 790 µM
kcat: 1.32 s⁻¹
